The record followed here is US20120219559A1 (Johns Hopkins, published 2012).

Test [1] concerns the target T1, human B7-H2Ig fusion protein (human, UniProt O75144 19-258).
T1 construct: Ig (Fc) part not given
T1 sequence: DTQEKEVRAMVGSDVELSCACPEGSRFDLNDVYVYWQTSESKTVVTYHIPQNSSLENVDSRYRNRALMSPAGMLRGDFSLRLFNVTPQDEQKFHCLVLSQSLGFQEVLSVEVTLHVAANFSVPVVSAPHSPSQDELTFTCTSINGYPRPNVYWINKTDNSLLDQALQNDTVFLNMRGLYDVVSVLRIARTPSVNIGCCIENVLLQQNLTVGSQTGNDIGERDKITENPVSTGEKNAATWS
Kind of test: flow cytometry on 293T cells transfected with human ICOS.

Another test deals with T2, B7-H1Ig (Homo sapiens, UniProt Q9NZQ7).
T2 construct: Ig fusion protein purchased from R&D systems; also called human B7-H1Ig fusion protein
T2 sequence (Q9NZQ7 19-239 limits assumed): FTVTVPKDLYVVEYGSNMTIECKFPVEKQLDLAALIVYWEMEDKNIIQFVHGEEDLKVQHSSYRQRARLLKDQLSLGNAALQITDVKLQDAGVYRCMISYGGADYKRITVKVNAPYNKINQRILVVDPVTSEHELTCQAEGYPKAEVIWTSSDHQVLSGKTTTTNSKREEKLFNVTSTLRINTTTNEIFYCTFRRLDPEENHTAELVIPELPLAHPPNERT
Kind of test: CDS well image, 293T cells transfected with the human gene, stained with the human fusion protein.

Test [2] addresses T3, human B7-2Ig fusion protein (human, UniProt P42081 26-245).
T3 construct: Bought from R&D Systems; Ig (Fc) part not given
T3 sequence (looked up): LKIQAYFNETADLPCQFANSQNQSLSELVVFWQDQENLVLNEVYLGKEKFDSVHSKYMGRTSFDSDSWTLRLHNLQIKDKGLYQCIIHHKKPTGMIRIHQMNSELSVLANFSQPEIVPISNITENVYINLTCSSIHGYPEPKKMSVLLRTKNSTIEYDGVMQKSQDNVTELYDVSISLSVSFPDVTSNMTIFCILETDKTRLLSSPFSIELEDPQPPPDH
The description is as above.

For the next test, the target named is T4, B7-DCIg (Homo sapiens, UniProt Q9BQ51).
T4 construct: Ig fusion protein purchased from R&D systems; also called human B7-DCIg fusion protein
T4 sequence (fusion protein, looked up): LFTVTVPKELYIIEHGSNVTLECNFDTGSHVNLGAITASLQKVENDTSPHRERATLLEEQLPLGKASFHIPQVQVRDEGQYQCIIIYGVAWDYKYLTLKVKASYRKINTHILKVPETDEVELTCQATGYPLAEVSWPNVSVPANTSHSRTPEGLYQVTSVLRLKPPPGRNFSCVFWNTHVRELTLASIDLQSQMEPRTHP
Described as above.

Test [3] has as its target T5, human B7-1Ig fusion protein (human, UniProt P33681 35-242).
T5 construct: Bought from R&D Systems; Ig (Fc) part not given
T5 sequence (looked up): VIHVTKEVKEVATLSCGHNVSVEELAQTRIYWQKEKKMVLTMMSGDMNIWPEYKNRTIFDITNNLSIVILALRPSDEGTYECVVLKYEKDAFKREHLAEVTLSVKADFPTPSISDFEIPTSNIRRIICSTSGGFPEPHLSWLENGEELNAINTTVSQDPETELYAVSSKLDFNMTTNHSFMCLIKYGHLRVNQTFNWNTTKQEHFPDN
The description is as above.

B1: human ICOS, full length, expressed on cells (ICOS+293T cells) (receptor)
chain: EINGSANYEMFIFHNGGVQILCKYPDIVQQFKMQLLKGGQILCDLTKTKGSGNTVSIKSLKFCHSQLSNNSVSFFLYNLDHSHANYYFCNLSIFDPPPFKVTLTGGYLHIYESQLCCQLKFWLPIGCAAFVVVCILGCILICWLTKKKYSSSVHDPNGEYMFMRAVNTAKKSRLTDVTL
notes: This id also stands for ICOS on human T cells in the functional rows
Take B1: the binding result is listed as “binds” in test [1]; “no binding” in the test with B7-H1Ig; “no binding” in test [2]; “no binding” with B7-DCIg; “no binding” in test [3].
